Laboratory results as given in the DeepSol protein solubility set.

Experiment: soluble on expression in E. coli; label from the status in PepcDB or PDB records

Sequence	soluble on expression in E. coli
GPGSATTVHGETVVNGAKLTVTKNLDLVNSNALIPNTDFTFKIEPDTTVNEDGNKFKGVALNTPMTKVTYTNSDKGGSNTKTAEFDFSEVTFEKPGVYYYKVTEEKIDKVPGVSYDTTSYTVQVHVLWNEEQQKPVATYIVGYKEGSKVPIQFKASLDSTTLTVKKKVSGTGGDRSKDFNFGLTLKANQYYKASEKVMIEKTTKGGQAPVQTEASIDQLYHFTLKDGESIKVTNLPVGVDYVVTEDDYKSEKYTTNVEVSPQDGAVKNIAGNSTEQETSTDKDMTITFTNKKVFE	soluble
MGSDKIHHHHHHMSILYEERLDGALPDVDRTSVLMALREHVPGLEILHTDEEIIPYECDGLSAYRTRPLLVVLPKQMEQVTAILAVCHRLRVPVVTRGAGTGLSGGALPLEKGVLLVMARFKEILDINPVGRRARVQPGVRNLAISQAVAPHNLYYAPDPSSQIACSIGGNVAENAGGVHCLKYGLTVHNLLKIEVQTLDGEALTLGSDALDSPGFDLLALFTGSEGMLGVTTEVTVKLLPKPPVARVLLASFDSVEKAGLAVGDIIANGIIPGGLEMMDNLSIRAAEDFIHAGYPVDAEAILLCELDGVESDVQEDCERVNDILLKAGATDVRLAQDEAERVRFWAGRKNAFPAVGRISPDYYCMDGTIPRRALPGVLEGIARLSQQYDLRVANVFHAGDGNMHPLILFDANEPGEFARAEELGGKILELCVEVGGSISGEHGIGREKINQMCAQFNSDEITTFHAVKAAFDPDGLLNPGKNIPTLHRCAEFGAMHVHHGHLPFPELERF	not soluble
MGSDKIHHHHHHMLPLPPYPLPNSIMWTQIDTHISQVTGEKFQSQQRRSVGGGCINQGYAVSNGEITYFVKLNLASQVAMFEAEALGLKEMLATASIRIPQPICWGVAENSSYIVLEWLELGNGNSNTSLRDAPRWEEMGRKLAAMHQASSSQGFGWKINNTIGSTPQINTWTADWTEFYIKHRLGYQFQLARRRGGSFPQQEKLLAAIRELLTHQVQPSLVHGDLWGGNAGCTASGEPVIFDPATYFGDREVDIAMTELFGGFPAAFYKGYNEVFPLDAGYEQRKTLYNLYHILNHFNLFGGGYASQANRMIDQILR	not soluble
MGSDKIHHHHHHMNYCSIVSSNVVKGKAKELGFHKVGIAAVNESTNAEAERLQAWIKLGYHADMEWMNNPKRSDISLIMPEARSLVCVALNYYTPHQRPDSAEYAKISRYGWGRDYHKVMNRKLKALTTWLQSLDPSIQARYYADTGPVQDKVWAQRAGIGWIAKNGNVITRAYGSWVFLGEVVTNLELEKDSPHTEHCGSCTRCLDACPTGAITQPFVVDANRCIAYHTIENRAAELPEAIASQMQGWVAGCDICQDVCPWNQRFAQTTDVVDFQPYPDNIAPKLIELAQISDEEWDKQFPASALRRIKPEMLRRNARANLDASKRNNDPESNHF	not soluble
MGSDKIHHHHHHMEMLFLLKNLYRDPLALSRFSQFRCLHISKGEIIQNLNETHEFQVCFVLKGSLCLFRDHIESMPLMAMQNEFFFISSLHQCKIKAMDEVQLVIHACNIVAPYLHSRTIEYLQDISIEEVKPVEVLPIYPLMRSYLDLLVDYMKNGTEIPDLHRAKEYELFSLFKICYKKNEIASIFRDALSNDLQFFVSVMTHYKACRTAKELAVLCGYNDTVFTQLFKKNFHGDTPYQWLQKQTSYEIEFKLKKSTLPIKQIMLDYHFKTFSHFTTYCKRNIGATPNEIRKKGEESRDTPSLETYSVSAND	not soluble
MSQYVVCALYKFVELNNYQELREPLLALMEKHHIRGTLLLAGEGINGTVASDRAGIDTLLEWLNTEPRLTGTVYKESYSETQPFNRTKVKLKKEIVTLGVEGIDPRHVVGTYVKPQDWNDLIADPEVFVVDTRNDYEIEIGTFKGAVNPNTETFREFPDYVKENMDPAKHKKVAMFCTGGIRCEKSTAYMKEQGFEEVYHLEGGILKYLEEVPQEESMWEGDCYVFDGRVAVNHQLEKADYDLCNACRLPITDEDKQSELFEQGVSCPKCHGKHSEEQVERFREREKQVSLANQRGEQHVGGESAKQRAQRREAKLAKKAAQRKQALEHHHHHH	soluble
SLENENQLTHQFPTLSRWNPMFISDVHKISFHPHLQRYIGFWMGFPIRWIQIVGYIAAIDIYEGKHVLTVDDCSGMVLRVVFIIQDDFSMSKRAISMSPGNVVCVFGKINSFRSEVELIAQSFEELRDPNDEWKAWQKRMRYKKNLTKISKNHHSIIRT	soluble
